Tests used:
Assay type in all cases: biochemical, Enterococcus faecium
O=P(O)(O)OCC(O)CO [1] = assay: Km value of modified GPO Phe 130/Ala 225; conditions: other: Phe 130, Ala 225, 37° C., pH 7.0 activity assay
Experimental: (§1) According to the invention, method for the measurement GPO activity is as follows unless otherwise noted.
(§2) 300 mM Sodium (±)-1-glycerophosphate n-hydrate
(§3) A 1.0 ml portion of a reaction solution having the above composition is put into a test tube and subjected to 5 minutes of preliminary incubation at 37° C., and then 20 μl of an enzyme solution is added thereto to carry out 5 minutes of the reaction at 37° C. After the reaction, 2.0 ml of 0.5% SDS solution is added to terminate the reaction, and calorimetric determination is carried out at a wavelength of 600 nm. An activity capable of forming 1 μmole of hydrogen peroxide within 1 minute was defined as 1 unit (U). [formula]
(§4) The resulting cells were collected by centrifugation, washed with 10 mM Tris-HCl buffer (pH 8.0) containing 0.1 M sodium chloride and 1 mM EDTA and then suspended in a solution prepared by adding 1 mg/ml of lysozyme to 50 mM potassium phosphate buffer (pH 7.0) containing 10 mM EDTA and 0.1% Triton X-100, subsequently carrying out 2 hours of cell lysis at 4° C. After the cell lysis, this was subjected to ultrasonic disintegration and then centrifuged, and the supernatant was used as the enzyme solution to measure its enzyme activity, heat resistance and Km value.
(§5) In addition, improvement of two or more properties was found by a combination of these mutations. […]

O=P(O)(O)OCC(O)CO [2] = assay: Km value of GPO (wild type control, E. coli DH5/pGPO97); conditions: other: wild type GPO, 37° C., pH 7.0 activity assay
Experimental: as §1, §2, §3, §4, §5

O=P(O)(O)OCC(O)CO [3] = assay: Km value of modified GPO Ala 225/Gly 420; conditions: other: Ala 225, Gly 420, 37° C., pH 7.0 activity assay
Experimental: as §1, §2, §3, §4, §5

## Enterococcus faecium No. 7044 L-α-glycerophosphate oxidase (GPO) variant Phe 130/Ala 225 (Enterococcus faecium DO; L137F/L267F/S362A)
O=P(O)(O)OCC(O)CO [1]
  Km: 4.6 mM

## Enterococcus faecium No. 7044 L-α-glycerophosphate oxidase (GPO), wild type, Sequence No. 1 (Enterococcus faecium DO)
O=P(O)(O)OCC(O)CO [2]
  Km: 23.2 mM

## Enterococcus faecium No. 7044 L-α-glycerophosphate oxidase (GPO) variant Ala 225/Gly 420 (Enterococcus faecium DO; D212G/D427G/S17A)
O=P(O)(O)OCC(O)CO [3]
  Km: 28.8 mM
